Reference: US20250073311A1, “DOSAGE REGIME” (ZEALAND PHARMA A/S, priority 2021, published 2025)
Blank lines part the entries; values can stand above or below the binder they belong to. Numbered stars: 1 amine (or outer) side, 2 acyl side, 3 side chain; on linkers, the order of the positions; unused ones are H or OH. Square brackets hold non-standard residues; d marks the D form. Side chains are listed from the residue outwards. * marks the point of attachment. C20 diacid = O=C(O)CCCCCCCCCCCCCCCCCCC(=O)*; C18 diacid = O=C(O)CCCCCCCCCCCCCCCCC(=O)*; γGlu = O=C(O)[C@H](CCC(=O)[*:2])N[*:1]; Stearoyl = CCCCCCCCCCCCCCCCCC(=O)*; AEEA = NCCOCCOCC(=O)O; Aib = CC(C)(N)C(=O)O

What was measured:
[1] = molecular target: T1, human GLP-2 receptor (hGLP2-R) (human, UniProt O95838); assay: cell-based or functional assay
T1 sequence: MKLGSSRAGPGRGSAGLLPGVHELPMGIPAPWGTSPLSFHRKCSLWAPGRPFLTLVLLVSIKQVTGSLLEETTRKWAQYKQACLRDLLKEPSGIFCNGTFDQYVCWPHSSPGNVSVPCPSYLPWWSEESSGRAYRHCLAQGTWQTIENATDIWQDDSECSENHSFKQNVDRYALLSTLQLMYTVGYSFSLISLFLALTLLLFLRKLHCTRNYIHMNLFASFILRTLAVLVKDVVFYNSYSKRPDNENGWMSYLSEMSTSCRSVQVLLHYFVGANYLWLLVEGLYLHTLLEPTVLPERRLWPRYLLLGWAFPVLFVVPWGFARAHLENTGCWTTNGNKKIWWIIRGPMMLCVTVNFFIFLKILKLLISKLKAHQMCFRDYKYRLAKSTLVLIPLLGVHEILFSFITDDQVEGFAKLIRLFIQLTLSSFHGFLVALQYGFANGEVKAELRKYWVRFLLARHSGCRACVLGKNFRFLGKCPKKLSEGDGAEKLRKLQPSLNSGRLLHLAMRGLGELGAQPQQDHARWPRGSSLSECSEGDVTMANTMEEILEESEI

[2] = molecular target: human glucagon-like peptide 1 receptor (GLP-1R) (human, UniProt P43220); assay: cell-based or functional assay

Binder: H-H[Aib]EGSFTSELATILDK([AEEA-AEEA-AEEA-iso‑Lys-C20 diacid])QAARDFIAWLIQQKITD-OH [Compound 35]
- EC50 GLP-2 (nM), cAMP AlphaScreen [1]: 0.3 nM
- EC50 GLP-1 (nM), cAMP AlphaScreen [2]: 0.099 nM

B3: Compound 34 (peptide)
peptide: H-H[Aib]EGSFTSELATILDK([AEEA-AEEA-γGlu-C20 diacid])QAARDFIAWLKQHKITD-OH
SMILES: CC[C@H](C)[C@H](NC(=O)[C@H](Cc1ccccc1)NC(=O)[C@H](CC(=O)O)NC(=O)[C@H](CCCNC(=N)N)NC(=O)[C@H](C)NC(=O)[C@H](C)NC(=O)[C@H](CCC(N)=O)NC(=O)[C@H](CCCCNC(=O)COCCOCCNC(=O)COCCOCCNC(=O)CC[C@H](NC(=O)CCCCCCCCCCCCCCCCCCC(=O)O)C(=O)O)NC(=O)[C@H](CC(=O)O)NC(=O)[C@H](CC(C)C)NC(=O)[C@@H](NC(=O)[C@@H](NC(=O)[C@H](C)NC(=O)[C@H](CC(C)C)NC(=O)[C@H](CCC(=O)O)NC(=O)[C@H](CO)NC(=O)[C@@H](NC(=O)[C@H](Cc1ccccc1)NC(=O)[C@H](CO)NC(=O)CNC(=O)[C@H](CCC(=O)O)NC(=O)C(C)(C)NC(=O)[C@@H](N)Cc1c[nH]cn1)[C@@H](C)O)[C@@H](C)O)[C@@H](C)CC)C(=O)N[C@@H](C)C(=O)N[C@@H](Cc1c[nH]c2ccccc12)C(=O)N[C@@H](CC(C)C)C(=O)N[C@@H](CCCCN)C(=O)N[C@@H](CCC(N)=O)C(=O)N[C@@H](Cc1c[nH]cn1)C(=O)N[C@@H](CCCCN)C(=O)N[C@H](C(=O)N[C@H](C(=O)N[C@@H](CC(=O)O)C(=O)O)[C@@H](C)O)[C@@H](C)CC
- EC50 GLP-2 (nM), cAMP AlphaScreen [1]: 0.13 nM
- EC50 GLP-1 (nM), cAMP AlphaScreen [2]: 0.28 nM

B4: Compound 33 (peptide)
peptide: H-H[Aib]EGSFTSELATILDK([AEEA-γGlu-C18 diacid])QAARDFIAWLYQHKITD-OH
SMILES: CC[C@H](C)[C@H](NC(=O)[C@H](Cc1ccccc1)NC(=O)[C@H](CC(=O)O)NC(=O)[C@H](CCCNC(=N)N)NC(=O)[C@H](C)NC(=O)[C@H](C)NC(=O)[C@H](CCC(N)=O)NC(=O)[C@H](CCCCNC(=O)COCCOCCNC(=O)CC[C@H](NC(=O)CCCCCCCCCCCCCCCCC(=O)O)C(=O)O)NC(=O)[C@H](CC(=O)O)NC(=O)[C@H](CC(C)C)NC(=O)[C@@H](NC(=O)[C@@H](NC(=O)[C@H](C)NC(=O)[C@H](CC(C)C)NC(=O)[C@H](CCC(=O)O)NC(=O)[C@H](CO)NC(=O)[C@@H](NC(=O)[C@H](Cc1ccccc1)NC(=O)[C@H](CO)NC(=O)CNC(=O)[C@H](CCC(=O)O)NC(=O)C(C)(C)NC(=O)[C@@H](N)Cc1c[nH]cn1)[C@@H](C)O)[C@@H](C)O)[C@@H](C)CC)C(=O)N[C@@H](C)C(=O)N[C@@H](Cc1c[nH]c2ccccc12)C(=O)N[C@@H](CC(C)C)C(=O)N[C@@H](Cc1ccc(O)cc1)C(=O)N[C@@H](CCC(N)=O)C(=O)N[C@@H](Cc1c[nH]cn1)C(=O)N[C@@H](CCCCN)C(=O)N[C@H](C(=O)N[C@H](C(=O)N[C@@H](CC(=O)O)C(=O)O)[C@@H](C)O)[C@@H](C)CC
- EC50 GLP-2 (nM), cAMP AlphaScreen [1]: 0.072 nM
- EC50 GLP-1 (nM), cAMP AlphaScreen [2]: 0.85 nM

Now from value to binder:

- EC50 GLP-2 (nM), cAMP AlphaScreen [1]: 0.89 nM
- EC50 GLP-1 (nM), cAMP AlphaScreen [2]: 0.25 nM
B1: Compound 38 (peptide)
peptide: H-H[Aib]EGTFSSELATILDEQAARDFIAWLIAHKITD[dK][dK][dK][dK][dK][dK]([γGlu-C18 diacid])-NH2
SMILES: CC[C@H](C)[C@H](NC(=O)[C@H](CC(C)C)NC(=O)[C@H](Cc1c[nH]c2ccccc12)NC(=O)[C@H](C)NC(=O)[C@@H](NC(=O)[C@H](Cc1ccccc1)NC(=O)[C@H](CC(=O)O)NC(=O)[C@H](CCCNC(=N)N)NC(=O)[C@H](C)NC(=O)[C@H](C)NC(=O)[C@H](CCC(N)=O)NC(=O)[C@H](CCC(=O)O)NC(=O)[C@H](CC(=O)O)NC(=O)[C@H](CC(C)C)NC(=O)[C@@H](NC(=O)[C@@H](NC(=O)[C@H](C)NC(=O)[C@H](CC(C)C)NC(=O)[C@H](CCC(=O)O)NC(=O)[C@H](CO)NC(=O)[C@H](CO)NC(=O)[C@H](Cc1ccccc1)NC(=O)[C@@H](NC(=O)CNC(=O)[C@H](CCC(=O)O)NC(=O)C(C)(C)NC(=O)[C@@H](N)Cc1c[nH]cn1)[C@@H](C)O)[C@@H](C)O)[C@@H](C)CC)[C@@H](C)CC)C(=O)N[C@@H](C)C(=O)N[C@@H](Cc1c[nH]cn1)C(=O)N[C@@H](CCCCN)C(=O)N[C@H](C(=O)N[C@H](C(=O)N[C@@H](CC(=O)O)C(=O)N[C@H](CCCCN)C(=O)N[C@H](CCCCN)C(=O)N[C@H](CCCCN)C(=O)N[C@H](CCCCN)C(=O)N[C@H](CCCCN)C(=O)N[C@H](CCCCNC(=O)CC[C@H](NC(=O)CCCCCCCCCCCCCCCCC(=O)O)C(=O)O)C(N)=O)[C@@H](C)O)[C@@H](C)CC

- EC50 GLP-2 (nM), cAMP AlphaScreen [1]: 0.98 nM
- EC50 GLP-1 (nM), cAMP AlphaScreen [2]: 0.044 nM
B2: Compound 39 (peptide)
peptide: H-H[Aib]EGTFTSELATILDEQAARDFIAWLIAHKITD[dK][dK][dK][dK][dK][dK]([γGlu-C18 diacid])-NH2
SMILES: CC[C@H](C)[C@H](NC(=O)[C@H](CC(C)C)NC(=O)[C@H](Cc1c[nH]c2ccccc12)NC(=O)[C@H](C)NC(=O)[C@@H](NC(=O)[C@H](Cc1ccccc1)NC(=O)[C@H](CC(=O)O)NC(=O)[C@H](CCCNC(=N)N)NC(=O)[C@H](C)NC(=O)[C@H](C)NC(=O)[C@H](CCC(N)=O)NC(=O)[C@H](CCC(=O)O)NC(=O)[C@H](CC(=O)O)NC(=O)[C@H](CC(C)C)NC(=O)[C@@H](NC(=O)[C@@H](NC(=O)[C@H](C)NC(=O)[C@H](CC(C)C)NC(=O)[C@H](CCC(=O)O)NC(=O)[C@H](CO)NC(=O)[C@@H](NC(=O)[C@H](Cc1ccccc1)NC(=O)[C@@H](NC(=O)CNC(=O)[C@H](CCC(=O)O)NC(=O)C(C)(C)NC(=O)[C@@H](N)Cc1c[nH]cn1)[C@@H](C)O)[C@@H](C)O)[C@@H](C)O)[C@@H](C)CC)[C@@H](C)CC)C(=O)N[C@@H](C)C(=O)N[C@@H](Cc1c[nH]cn1)C(=O)N[C@@H](CCCCN)C(=O)N[C@H](C(=O)N[C@H](C(=O)N[C@@H](CC(=O)O)C(=O)N[C@H](CCCCN)C(=O)N[C@H](CCCCN)C(=O)N[C@H](CCCCN)C(=O)N[C@H](CCCCN)C(=O)N[C@H](CCCCN)C(=O)N[C@H](CCCCNC(=O)CC[C@H](NC(=O)CCCCCCCCCCCCCCCCC(=O)O)C(=O)O)C(N)=O)[C@@H](C)O)[C@@H](C)CC

- EC50 GLP-2 (nM), cAMP AlphaScreen [1]: 3.2 nM
- EC50 GLP-1 (nM), cAMP AlphaScreen [2]: 0.32 nM
B5: Compound 36 (peptide)
peptide: H-H[Aib]EGSFTSELATILDK(Stearoyl)QAARDFIAWLIQYKITD-OH
SMILES: CCCCCCCCCCCCCCCCCC(=O)NCCCC[C@H](NC(=O)[C@H](CC(=O)O)NC(=O)[C@H](CC(C)C)NC(=O)[C@@H](NC(=O)[C@@H](NC(=O)[C@H](C)NC(=O)[C@H](CC(C)C)NC(=O)[C@H](CCC(=O)O)NC(=O)[C@H](CO)NC(=O)[C@@H](NC(=O)[C@H](Cc1ccccc1)NC(=O)[C@H](CO)NC(=O)CNC(=O)[C@H](CCC(=O)O)NC(=O)C(C)(C)NC(=O)[C@@H](N)Cc1c[nH]cn1)[C@@H](C)O)[C@@H](C)O)[C@@H](C)CC)C(=O)N[C@@H](CCC(N)=O)C(=O)N[C@@H](C)C(=O)N[C@@H](C)C(=O)N[C@@H](CCCNC(=N)N)C(=O)N[C@@H](CC(=O)O)C(=O)N[C@@H](Cc1ccccc1)C(=O)N[C@H](C(=O)N[C@@H](C)C(=O)N[C@@H](Cc1c[nH]c2ccccc12)C(=O)N[C@@H](CC(C)C)C(=O)N[C@H](C(=O)N[C@@H](CCC(N)=O)C(=O)N[C@@H](Cc1ccc(O)cc1)C(=O)N[C@@H](CCCCN)C(=O)N[C@H](C(=O)N[C@H](C(=O)N[C@@H](CC(=O)O)C(=O)O)[C@@H](C)O)[C@@H](C)CC)[C@@H](C)CC)[C@@H](C)CC
